Assay results reported in PMC3207831, “Determinants of the Differential Antizyme-Binding Affinity of Ornithine Decarboxylase” (PLoS ONE, 2011).

What was measured:
[1] = target: ODC_7M (ODC_Q119H/A124R/N125D/Q129D/E136V/V137D/M140E) (human) (UniProt P11926)
[2] = target: human ornithine decarboxylase, wild type (human) (UniProt P11926)
[3] = target: ODC_7M (ODC_Q119H/A124R/N125D/Q129D/E136V/V137D/M140E) (human) (UniProt P11926); experiment: AUC; sedimentation velocity, 20°C, 42,000 rpm, absorbance at 280 nm; ODC fixed at 0.3 mg/mL, AZ 0.03, 0.06 or 0.09 mg/mL; global fit to the AB hetero-association model (SEDPHAT)
[4] = target: ODC_7M(-Q119H) (ODC_A124R/N125D/Q129D/E136V/V137D/M140E) (human) (UniProt P11926); experiment: as above
ODC_7M(-V137D) (human) = ODC_7M(-V137D) (human) (UniProt P11926); experiment: as above
[5] = target: ODC_Q119H/V137D/M140E (human) (UniProt P11926); experiment: as above
[6] = target: human ornithine decarboxylase, wild type (human) (UniProt P11926); experiment: as above
[7] = target: the molecule itself; experiment: AUC; sedimentation velocity, 20°C, 42,000 rpm, continuous size distribution (SEDFIT); ODC in the absence of AZ

Molecule | ODC enzyme activity left with increasing AZ (ODC 20 μg/mL, AZ 0 to 28 μg/mL); value at a molar ratio of 1:1 AZ:ODC [1] [%] | ODC enzyme activity left with increasing AZ (ODC 20 μg/mL, AZ 0 to 28 μg/mL); value at a molar ratio of 2:1 monomeric AZ to dimeric ODC [2] [%] | Kd [3] [µM] | Kd [4] [µM] | Kd (ODC_7M(-V137D) (human)) [µM] | Kd [5] [µM] | Kd [6] [µM] | stoichiometry N [7]
antizyme (from UniProt P54368 1-228) (natural protein) | 90 | 30 | 12.4 | 1.42 | 1.2 | 9.95 | 0.22 | 
human ornithine decarboxylase, wild type (enzyme, UniProt P11926 1-461, looked up, human ornithine decarboxylase (ODC, EC 4.1.1.17); Homodimer in the absence of AZ by sedimentation velocity; also called hODC; source: E. coli JM109 (pQE30), purified (Ni-NTA)) MNNFGNEEFDCHFLDEGFTAKDILDQKINEVSSSDDKDAFYVADLGDILKKHLRWLKALPRVTPFYAVKCNDSKAIVKTLAATGTGFDCASKTEIQLVQSLGVPPERIIYANPCKQVSQIKYAANNGVQMMTFDSEVELMKVARAHPKAKLVLRIATDDSKAVCRLSVKFGATLRTSRLLLERAKELNIDVVGVSFHVGSGCTDPETFVQAISDARCVFDMGAEVGFSMYLLDIGGGFPGSEDVKLKFEEITGVINPALDKYFPSDSGVRIIAEPGRYYVASAFTLAVNIIAKKIVLKEQTGSDDEDESSEQTFMYYVNDGVYGSFNCILYDHAHVKPLLQKRPKPDEKYYSSSIWGPTCDGLDRIVERCDLPEMHVGDWMLFENMGAYTVAAASTFNGFQRPTIYYVMSGPAWQLMQQFQNPDFPPEVEEQDASTLPVSCAWESGMKRHRAACASASINV |  |  |  |  |  |  |  | 2
